Source: PMC6757032 (Nature Communications, 2019)

How the values were obtained:
[1] = target: T1, full-length rat syntaxin-1A (reconstituted in liposomes, S-liposomes) (rat, UniProt P32851 1-288); assay: SEC; S-liposomes (2.29 mM lipid) with full-length syntaxin-1A incubated 1 h with 1.2 µM αSNAP or 1.2 µM Munc18-1, then mixed with 1.2 µM of the other (at once or 12 h at 4 °C); 25 mM HEPES pH 7.4, 150 mM KCl, 1 mM TCEP; liposomes and bound proteins elute near the void volume; settings: both partners purified
T1 construct: syntaxin-1A, rat, full length; For the NMR experiments the protein was 2H-I-13CH3-labelled (isoleucine delta1 methyl groups); also called Syx WT; liposome-anchored syntaxin-1; source: E. coli BL21(DE3), purified (Ni-NTA, thrombin, Superdex 200 in DPC), reconstituted in liposomes
T1 sequence (P32851 whole entry): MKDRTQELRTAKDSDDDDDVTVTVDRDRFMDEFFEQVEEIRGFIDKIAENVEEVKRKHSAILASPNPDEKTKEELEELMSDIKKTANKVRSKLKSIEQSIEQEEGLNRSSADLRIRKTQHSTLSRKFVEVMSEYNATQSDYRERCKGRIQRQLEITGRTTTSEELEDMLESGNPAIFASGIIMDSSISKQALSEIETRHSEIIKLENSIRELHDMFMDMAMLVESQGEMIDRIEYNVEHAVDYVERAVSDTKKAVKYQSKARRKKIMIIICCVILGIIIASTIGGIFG

[2] = target: T1, full-length rat syntaxin-1A …; assay: liposome co-floatation; S-liposomes (0.75 mM lipid) with full-length syntaxin-1A pre-incubated 1 h at room temperature with 3 µM αSNAP (C-terminal His6-linker) or 3 µM Munc18-1, then 0-15 µM of the other protein (with or without 2.4 µM NSF) or 3 µM Munc18-1 at 4 °C for various times; Histodenz gradient, top layer by SDS-PAGE and Coomassie blue; settings: both partners purified

B1: full-length Bos Taurus αSNAP (natural protein, UniProt P81125 1-295, looked up)
chain: MDNSGKEAEAMALLAEAERKVKNSQSFFSGLFGGSSKIEEACEIYARAANMFKMAKNWSAAGSAFCQAAHVHLQLQSKHDAATCFVDAGNAFKKADPQEAINCLMRAIEIYTDMGRFTIAAKHHISIAEIYETELVDIEKAIAHYEQSADYYKGEESNSSANKCLLKVAGYAAQLEQYQKAIDIYEQVGTNAMDSPLLKYSAKDYFFKAALCHFCIDMLNAKLAVQKYEELFPAFSDSRECKRIKKLLEAHEEQNVDSYTEAVKEYDSISRLDQWLTTMLLRIKKTIQGDEEDLR
notes: alpha-SNAP, Bos taurus, full length; also called WT αSNAP; source: E. coli BL21(DE3), purified (Glutathione Sepharose, thrombin, Superdex 75)
Q: Does B1 bind [1]?
A: binds

B2: αSNAP with a C-terminal His6-linker (…) (natural protein, Bos Taurus, UniProt P81125 1-295, looked up)
chain: MDNSGKEAEAMALLAEAERKVKNSQSFFSGLFGGSSKIEEACEIYARAANMFKMAKNWSAAGSAFCQAAHVHLQLQSKHDAATCFVDAGNAFKKADPQEAINCLMRAIEIYTDMGRFTIAAKHHISIAEIYETELVDIEKAIAHYEQSADYYKGEESNSSANKCLLKVAGYAAQLEQYQKAIDIYEQVGTNAMDSPLLKYSAKDYFFKAALCHFCIDMLNAKLAVQKYEELFPAFSDSRECKRIKKLLEAHEEQNVDSYTEAVKEYDSISRLDQWLTTMLLRIKKTIQGDEEDLR
notes: Used in all liposome co-floatation assays so that the syntaxin-1 and αSNAP bands separate on the gels; also called αSNAP containing a linker at the C terminus; source: E. coli BL21(DE3), purified as the unmodified construct
Q: Does B2 bind [2]?
A: binds
